B1: BRCA1-A complex subunit Abraxas 1 (Homo sapiens), Q6UWZ7 (parent)
chain: MEGESTSAVLSGFVLGALAFQHLNTDSDTEGFLLGEVKGEAKNSITDSQMDDVEVVYTIDIQKYIPCYQLFSFYNSSGEVNEQALKKILSNVKKNVVGWYKFRRHSDQIMTFRERLLHKNLQEHFSNQDLVFLLLTPSIITESCSTHRLEHSLYKPQKGLFHRVPLVVANLGMSEQLGYKTVSGSCMSTGFSRAVQTHSSKFFEEDGSLKEVHKINEMYASLQEELKSICKKVEDSEQAVDKLVKDVNRLKREIEKRRGAQIQAAREKNIQKDPQENIFLCQALRTFFPNSEFLHSCVMSLKNRHVSKSSCNYNHHLDVVDNLTLMVEHTDIPEASPASTPQIIKHKALDLDDRWQFKRSRLLDTQDKRSKADTGSSNQDKASKMSSPETDEEIEKMKGFGEYSRSPTF

Variants of: B1
Details: with brca1_human BRCA1, P38398
Sequence of brca1_human BRCA1, P38398 (P38398 whole entry, looked up): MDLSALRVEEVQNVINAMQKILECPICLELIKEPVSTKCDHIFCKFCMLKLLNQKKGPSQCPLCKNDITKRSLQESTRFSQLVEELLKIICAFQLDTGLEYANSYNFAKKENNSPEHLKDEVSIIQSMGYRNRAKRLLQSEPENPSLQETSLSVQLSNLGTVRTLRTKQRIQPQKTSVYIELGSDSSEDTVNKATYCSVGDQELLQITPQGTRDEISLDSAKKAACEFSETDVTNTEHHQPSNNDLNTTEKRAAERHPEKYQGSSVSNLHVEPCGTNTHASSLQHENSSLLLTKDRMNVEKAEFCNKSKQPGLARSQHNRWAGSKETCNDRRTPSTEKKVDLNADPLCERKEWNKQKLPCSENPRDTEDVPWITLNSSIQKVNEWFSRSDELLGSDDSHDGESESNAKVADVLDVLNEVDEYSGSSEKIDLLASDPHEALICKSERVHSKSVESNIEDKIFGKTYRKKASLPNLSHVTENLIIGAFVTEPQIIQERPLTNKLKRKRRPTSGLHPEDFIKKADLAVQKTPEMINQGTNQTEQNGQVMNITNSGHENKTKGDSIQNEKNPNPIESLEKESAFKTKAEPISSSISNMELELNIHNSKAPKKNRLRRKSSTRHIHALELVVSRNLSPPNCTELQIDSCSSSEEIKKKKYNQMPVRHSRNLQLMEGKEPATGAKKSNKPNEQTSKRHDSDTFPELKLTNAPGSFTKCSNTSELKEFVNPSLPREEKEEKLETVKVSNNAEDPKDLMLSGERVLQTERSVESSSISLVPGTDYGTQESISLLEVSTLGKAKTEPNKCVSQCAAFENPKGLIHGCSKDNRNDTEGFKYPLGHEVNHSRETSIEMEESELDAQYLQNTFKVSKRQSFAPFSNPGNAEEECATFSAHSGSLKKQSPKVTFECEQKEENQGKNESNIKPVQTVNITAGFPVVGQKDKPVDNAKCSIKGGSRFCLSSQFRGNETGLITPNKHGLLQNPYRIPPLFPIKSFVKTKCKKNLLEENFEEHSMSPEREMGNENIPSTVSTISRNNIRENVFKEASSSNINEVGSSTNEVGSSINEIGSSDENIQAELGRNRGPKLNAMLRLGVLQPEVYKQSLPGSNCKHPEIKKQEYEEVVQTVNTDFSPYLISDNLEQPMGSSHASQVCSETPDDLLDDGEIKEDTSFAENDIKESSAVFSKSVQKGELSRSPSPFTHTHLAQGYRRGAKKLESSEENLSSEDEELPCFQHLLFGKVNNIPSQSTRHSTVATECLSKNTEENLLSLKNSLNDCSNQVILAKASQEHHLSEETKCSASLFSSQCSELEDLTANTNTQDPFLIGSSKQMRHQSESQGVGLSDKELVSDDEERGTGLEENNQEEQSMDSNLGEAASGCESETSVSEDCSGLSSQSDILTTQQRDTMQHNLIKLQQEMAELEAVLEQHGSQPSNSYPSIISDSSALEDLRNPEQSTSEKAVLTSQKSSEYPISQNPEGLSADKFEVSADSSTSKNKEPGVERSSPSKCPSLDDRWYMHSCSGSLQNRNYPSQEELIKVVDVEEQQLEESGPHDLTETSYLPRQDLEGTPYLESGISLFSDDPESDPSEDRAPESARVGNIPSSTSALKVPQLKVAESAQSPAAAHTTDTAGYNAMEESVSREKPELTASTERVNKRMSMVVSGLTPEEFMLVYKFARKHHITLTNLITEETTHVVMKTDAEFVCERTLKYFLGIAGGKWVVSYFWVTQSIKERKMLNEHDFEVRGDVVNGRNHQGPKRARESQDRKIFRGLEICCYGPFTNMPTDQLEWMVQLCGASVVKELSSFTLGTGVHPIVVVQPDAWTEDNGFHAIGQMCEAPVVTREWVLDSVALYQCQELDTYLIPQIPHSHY

Row | Variant | effect of a mutation on the interaction
1 | MEGESTSAVLSGFVLGALAFQHLNTDSDTEGFLLGEVKGEAKNSITDSQMDDVEVVYTIDIQKYIPCYQLFSFYNSSGEVNEQALKKILSNVKKNVVGWYKFRRHSDQIMTFRERLLHKNLQEHFSNQDLVFLLLTPSIITESCSTHRLEHSLYKPQKGLFHRVPLVVANLGMSEQLGYKTVSGSCMSTGFSRAVQTHSSKFFEEDGSLKEVHKINEMYASLQEELKSICKKVEDSEQAVDKLVKDVNRLKREIEKRRGAQIQAAREKNIQKDPQENIFLCQALRTFFPNSEFLHSCVMSLKNRHVSKSSCNYNHHLDVVDNLTLMVEHTDIPEASPASTPQIIKHKALDLDDRWQFKRSRLLDTQDKRSKADTGSSNQDKASKMSSPETDEEIEKMKGFGEYSRAPTF [S406A] | decreasing interaction
